From patent US20140235820A1, “METHODS AND COMPOSITIONS FOR MODULATING THE Wnt PATHWAY” (Genentech, Inc., priority 2010, published 2014)
Values belong to the molecule of their own block, whether it stands above or below them. Non-standard residues stand in square brackets, D forms with d. NMeI = CC[C@H](C)[C@H](NC)C(=O)O; NMeK = CN[C@@H](CCCCN)C(=O)O; NMeS = CN[C@@H](CO)C(=O)O

How the values were obtained:
[1] = target: T1, human LRP6 construct E1 (amino acids A20-D325) (human, UniProt O75581 20-325); assay: synthetic peptides, competition IC50 (FIG. 18)
T1 construct: range 20-325; In the Fab crystal E1 arose from E1E2 degraded beyond Arg 335; residues Ala20 to Lys324 were traced; also called LRP6 E1; E1 domain
T1 sequence (looked up): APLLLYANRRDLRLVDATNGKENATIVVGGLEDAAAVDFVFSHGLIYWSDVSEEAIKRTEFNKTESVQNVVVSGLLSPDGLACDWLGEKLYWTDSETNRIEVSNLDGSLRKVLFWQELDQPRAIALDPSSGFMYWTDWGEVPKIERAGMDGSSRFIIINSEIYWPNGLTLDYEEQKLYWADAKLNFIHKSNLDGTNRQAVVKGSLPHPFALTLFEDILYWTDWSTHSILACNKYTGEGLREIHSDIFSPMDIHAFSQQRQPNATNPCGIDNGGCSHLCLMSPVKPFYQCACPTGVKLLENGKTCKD

LRP6 E1E2 = target: T2, LRP6 E1E2 (Homo sapiens, UniProt O75581); assay: Biolayer interferometry binding to LRP6 E1E2
T2 construct: construct E1E2-amino acids A20-E631 of LPR6; made in house; host or cells: Tni insect cells (baculovirus, secreted)
T2 sequence (O75581 20-631): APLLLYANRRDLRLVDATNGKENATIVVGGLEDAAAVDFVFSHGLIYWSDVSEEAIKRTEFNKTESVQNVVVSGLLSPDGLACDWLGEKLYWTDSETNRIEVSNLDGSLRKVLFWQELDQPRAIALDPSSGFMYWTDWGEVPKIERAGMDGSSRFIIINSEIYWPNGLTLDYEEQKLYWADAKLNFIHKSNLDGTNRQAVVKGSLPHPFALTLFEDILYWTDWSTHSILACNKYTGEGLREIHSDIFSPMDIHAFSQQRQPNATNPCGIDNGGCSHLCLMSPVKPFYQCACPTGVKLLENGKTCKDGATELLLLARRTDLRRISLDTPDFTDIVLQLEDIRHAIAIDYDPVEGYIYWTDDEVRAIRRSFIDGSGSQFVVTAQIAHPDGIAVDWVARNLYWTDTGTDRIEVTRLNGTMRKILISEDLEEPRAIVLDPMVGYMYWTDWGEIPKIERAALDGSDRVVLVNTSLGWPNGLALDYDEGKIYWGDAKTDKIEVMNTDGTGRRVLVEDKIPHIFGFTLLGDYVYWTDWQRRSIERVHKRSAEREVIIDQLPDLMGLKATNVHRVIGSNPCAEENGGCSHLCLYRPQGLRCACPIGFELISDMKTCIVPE
Protocol: (§1) Binding kinetics were measured by biolayer interferometry using an Octet Red instrument (ForteBio) as previously described (11). Streptavidin (SA) biosensors were loaded with biotinylated hLRP6 in 50 mMTris, pH 8, 300 mM NaCl, 5% (v/v) glycerol, and 0.05% (w/v) Triton X-100. The loaded biosensors were washed in the same buffer before carrying out association and dissociation measurements for the indicated times. The Kd of each interaction was determined using steady state-analysis through the Octet Red software v6.3. Each reported value represents an average of three or more experiments at different concentrations, with a fitted experimental curve for which the square of the correlation coefficient (R^2) is above 0.96.
(§2) The interaction of the different Dkks and sclerostin with various domains of LRP6 was measured using a biolayer interferometry assay (11). Purified receptors contained individual β-propeller-EGF-like units (E1, E2, or E4), two β-propellers (E1E2 or E3E4), or four β-propellers (E1E4))—as follows:
(§3) Human LRP6: construct E1E4-amino acids A20-Q1253 of LPR6; construct E1E2-amino acids A20-E631 of LPR6; construct E3E4 amino acids E631-Q1253 of LPR6; construct E1-amino acids A20-D325 of LPR6; construct E2-amino acids […]-E631 of LPR6; construct E4-T933-Q1253. The individual LRP6 β-propeller E3 could not be expressed.

LRP6 E1E4 = target: T3, LRP6 E1E4 (Homo sapiens, UniProt O75581); assay: Biolayer interferometry binding to LRP6 E1E4
T3 construct: construct E1E4-amino acids A20-Q1253 of LPR6; made in house; host or cells: Tni insect cells (baculovirus, secreted)
T3 sequence (O75581 20-1253): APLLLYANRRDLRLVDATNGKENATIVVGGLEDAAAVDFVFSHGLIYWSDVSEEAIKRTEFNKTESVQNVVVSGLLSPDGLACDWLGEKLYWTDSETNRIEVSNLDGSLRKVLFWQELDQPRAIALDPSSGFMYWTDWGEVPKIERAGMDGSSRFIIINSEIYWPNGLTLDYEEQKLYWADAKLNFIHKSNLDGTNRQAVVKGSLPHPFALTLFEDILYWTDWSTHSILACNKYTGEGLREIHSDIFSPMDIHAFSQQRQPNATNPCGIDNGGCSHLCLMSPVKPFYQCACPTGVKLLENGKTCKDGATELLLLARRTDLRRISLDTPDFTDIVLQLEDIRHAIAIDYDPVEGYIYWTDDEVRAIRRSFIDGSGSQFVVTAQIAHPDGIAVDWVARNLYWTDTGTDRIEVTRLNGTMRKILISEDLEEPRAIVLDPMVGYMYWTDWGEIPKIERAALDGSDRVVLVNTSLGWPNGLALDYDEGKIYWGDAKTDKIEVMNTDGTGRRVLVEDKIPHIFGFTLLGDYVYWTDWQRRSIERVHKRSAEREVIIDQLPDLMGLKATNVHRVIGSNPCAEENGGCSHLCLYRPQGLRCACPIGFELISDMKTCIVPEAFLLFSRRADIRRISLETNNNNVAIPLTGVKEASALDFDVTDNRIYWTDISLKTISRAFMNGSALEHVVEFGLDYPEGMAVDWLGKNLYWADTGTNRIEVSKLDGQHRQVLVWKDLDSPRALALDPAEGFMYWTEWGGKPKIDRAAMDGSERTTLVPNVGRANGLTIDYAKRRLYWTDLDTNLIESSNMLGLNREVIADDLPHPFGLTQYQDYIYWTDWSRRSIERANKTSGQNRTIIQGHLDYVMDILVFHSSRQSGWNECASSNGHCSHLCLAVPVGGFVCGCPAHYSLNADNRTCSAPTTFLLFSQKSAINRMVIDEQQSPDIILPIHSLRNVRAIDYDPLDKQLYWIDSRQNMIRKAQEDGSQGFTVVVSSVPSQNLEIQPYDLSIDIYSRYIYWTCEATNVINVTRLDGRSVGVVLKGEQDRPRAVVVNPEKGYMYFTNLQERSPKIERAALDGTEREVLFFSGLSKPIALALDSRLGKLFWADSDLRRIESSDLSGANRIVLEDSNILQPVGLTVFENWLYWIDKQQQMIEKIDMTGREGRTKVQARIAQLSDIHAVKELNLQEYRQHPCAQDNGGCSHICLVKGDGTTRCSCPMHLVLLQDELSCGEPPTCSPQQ
Protocol: as §1, §2, §3

LRP6 E3E4 = target: T4, LRP6 E3E4 (Homo sapiens, UniProt O75581); assay: Biolayer interferometry binding to LRP6 E3E4
T4 construct: construct E3E4 amino acids E631-Q1253 of LPR6; made in house; host or cells: Tni insect cells (baculovirus, secreted)
T4 sequence (O75581 631-1253): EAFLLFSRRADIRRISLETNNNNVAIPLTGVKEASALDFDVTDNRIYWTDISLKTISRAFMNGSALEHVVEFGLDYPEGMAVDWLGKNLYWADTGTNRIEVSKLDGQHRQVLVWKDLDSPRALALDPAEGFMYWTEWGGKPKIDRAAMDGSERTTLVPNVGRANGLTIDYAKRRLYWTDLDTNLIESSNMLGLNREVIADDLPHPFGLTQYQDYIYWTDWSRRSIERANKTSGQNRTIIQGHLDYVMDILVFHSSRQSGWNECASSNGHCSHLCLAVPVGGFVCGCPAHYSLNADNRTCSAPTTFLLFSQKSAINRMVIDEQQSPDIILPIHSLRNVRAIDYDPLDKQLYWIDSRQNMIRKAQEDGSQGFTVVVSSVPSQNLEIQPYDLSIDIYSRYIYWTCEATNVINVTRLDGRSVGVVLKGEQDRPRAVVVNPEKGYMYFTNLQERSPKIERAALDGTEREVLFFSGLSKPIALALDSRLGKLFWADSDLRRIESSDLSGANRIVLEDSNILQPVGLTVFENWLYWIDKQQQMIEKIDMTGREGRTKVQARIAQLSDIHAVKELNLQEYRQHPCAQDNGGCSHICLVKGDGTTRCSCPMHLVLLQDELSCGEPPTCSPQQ
Protocol: as §1, §2, §3

[2] = target: T5, human LRP6 construct E1E2 (amino acids A20-E631) (human, UniProt O75581 20-631, biotinylated for biolayer interferometry); assay: BLI affinity
T5 construct: range 20-631; also called LRP6 E1E2
T5 sequence (looked up): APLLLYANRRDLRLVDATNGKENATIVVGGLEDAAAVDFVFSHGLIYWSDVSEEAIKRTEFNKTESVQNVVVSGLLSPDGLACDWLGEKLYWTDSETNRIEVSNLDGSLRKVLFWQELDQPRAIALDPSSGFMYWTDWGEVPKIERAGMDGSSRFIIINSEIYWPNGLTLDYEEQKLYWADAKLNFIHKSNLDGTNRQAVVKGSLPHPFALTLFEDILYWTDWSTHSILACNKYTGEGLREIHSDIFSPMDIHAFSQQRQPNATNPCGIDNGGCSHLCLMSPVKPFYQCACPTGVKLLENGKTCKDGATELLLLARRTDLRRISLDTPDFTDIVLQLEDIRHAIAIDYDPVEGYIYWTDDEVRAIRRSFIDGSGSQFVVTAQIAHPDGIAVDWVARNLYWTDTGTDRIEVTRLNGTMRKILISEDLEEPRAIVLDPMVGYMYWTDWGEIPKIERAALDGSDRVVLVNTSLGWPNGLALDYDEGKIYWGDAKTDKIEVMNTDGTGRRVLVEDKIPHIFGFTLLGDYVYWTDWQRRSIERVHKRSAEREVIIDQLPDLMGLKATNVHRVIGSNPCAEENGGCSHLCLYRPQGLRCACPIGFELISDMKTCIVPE
Protocol: as §1, with “(R²)” for “(R^2)”

B1: Ac-NSIKGY-am with an Nα-methyl amino acid at the S position (peptide)
peptide: Ac-N[NMeS]IKGY-NH2
SMILES: CC[C@H](C)[C@H](NC(=O)[C@H](CO)N(C)C(=O)[C@H](CC(N)=O)NC(C)=O)C(=O)N[C@@H](CCCCN)C(=O)NCC(=O)N[C@@H](Cc1ccc(O)cc1)C(N)=O
binding result [1]: no binding

B2: Ac-NSIKGY-am (peptide)
peptide: Ac-NSIKGY-NH2
notes: also called minimized analogue of the Dkk1 peptide; Lys parent
binding result [1]: binds

Molecule: Ac-QSIKGY-NH2 [Ac-NSIKGY-am with Gln in place of Asn]
binding result [1]: no binding

Molecule: Ac-NSEKGY-NH2 [Ac-NSIKGY-am with Glu in place of Ile]
binding result [1]: no binding

B3: Dkk1 Asn40Ala (ligand, human, UniProt O94907 32-266, looked up)
chain: TLNSVLNSAAIKNLPPPLGGAAGHPGSAVSAAPGILYPGGNKYQTIDNYQPYPCAEDEECGTDEYCASPTRGGDAGVQICLACRKRRKRCMRHAMCCPGNYCKNGICVSSDQNHFRGEIEETITESFGNDHSTLDGYSRRTTLSSKMYHTKGQEGSVCLRSSDCASGLCCARHFWSKICKPVLKEGQVCTKHRRKGSHGLEIFQRCYCGEGLSCRIQKDHHQASNSSRLHTCQRH
notes: also called Dkk1 N40A
binding to LRP6 E1E2 (in words) (LRP6 E1E2): affect binding
binding to LRP6 E1E4 (in words) (LRP6 E1E4): retain binding
binding to LRP6 E3E4 (in words) (LRP6 E3E4): not to E3E4
fold loss in affinity against wild-type Dkk1 [2]: 75 fold

B6: Ac-NSIKGY-am with an Nα-methyl amino acid at the I position (peptide)
peptide: Ac-NS[NMeI]KGY-NH2
SMILES: CC[C@H](C)[C@@H](C(=O)N[C@@H](CCCCN)C(=O)NCC(=O)N[C@@H](Cc1ccc(O)cc1)C(N)=O)N(C)C(=O)[C@H](CO)NC(=O)[C@H](CC(N)=O)NC(C)=O
binding result [1]: no binding

The next lines start with the values.

binding result [1]: no binding
B4: Ac-NSIKGY-am with an Nα-methyl amino acid at the K position (peptide)
peptide: Ac-NSI[NMeK]GY-NH2
SMILES: CC[C@H](C)[C@H](NC(=O)[C@H](CO)NC(=O)[C@H](CC(N)=O)NC(C)=O)C(=O)N(C)[C@@H](CCCCN)C(=O)NCC(=O)N[C@@H](Cc1ccc(O)cc1)C(N)=O

binding to LRP6 E1E2 (in words) (LRP6 E1E2): did not bind
binding to LRP6 E1E4 (in words) (LRP6 E1E4): very weak binding
binding to LRP6 E3E4 (in words) (LRP6 E3E4): very weak binding
B5: Dkk4: Dickkopf 4, carrier-free protein from R&D Systems (protein, UniProt Q9UBT3 19-224, looked up)
Dickkopf-related protein 4: LVLDFNNIRSSADLHGARKGSQCLSDTDCNTRKFCLQPRDEKPFCATCRGLRRRCQRDAMCCPGTLCVNDVCTTMEDATPILERQLDEQDGTHAEGTTGHPVQENQPKRKPSIKKSQGRKGQEGESCLRTFDCGPGLCCARHFWTKICKPVLLEGQVCSRRGHKDTAQAPEIFQRCDCGPGLLCRSQLTSNRQHARLRVCQKIEKL

fold loss in affinity against wild-type sclerostin [2]: 14 fold
B7: Sclerostin Asn117Ala (ligand, UniProt Q9BQB4 24-213, looked up)
chain: QGWQAFKNDATEIIPELGEYPEPPPELENNKTMNRAENGGRPPHHPFETKDVSEYSCRELHFTRYVTDGPCRSAKPVTELVCSGQCGPARLLPAAIGRGKWWRPSGPDFRCIPDRYRAQRVQLLCPGGEAPRARKVRLVASCKCKRLTRFHNQSELKDFGTEAARPQKGRKPRPRARSAKANQAELENAY
notes: also called sclerostin N117A
